The values that follow come from article doi:10.1101/2024.10.04.616749, “Structural basis for a nucleoporin exportin complex between RanBP2, SUMO1-RanGAP1, the E2 Ubc9, Crm1 and the Ran GTPase” (bioRxiv, 2024).

What all share (details): both partners purified
Test [1] deals with T1, Crm1 (full-length human) (human, UniProt O14980 1-1071).
T1 construct: Crm1 (exportin-1), human, full length; also called exportin Crm1; source: E. coli BL21(DE3) SoluBL21 with Codon Plus (RIL) plasmid, purified (Ni-NTA, Ulp1 cleavage, SEC, MonoQ); not shown: His6-Smt3, N-terminal, cleaved
T1 sequence (O14980 whole entry): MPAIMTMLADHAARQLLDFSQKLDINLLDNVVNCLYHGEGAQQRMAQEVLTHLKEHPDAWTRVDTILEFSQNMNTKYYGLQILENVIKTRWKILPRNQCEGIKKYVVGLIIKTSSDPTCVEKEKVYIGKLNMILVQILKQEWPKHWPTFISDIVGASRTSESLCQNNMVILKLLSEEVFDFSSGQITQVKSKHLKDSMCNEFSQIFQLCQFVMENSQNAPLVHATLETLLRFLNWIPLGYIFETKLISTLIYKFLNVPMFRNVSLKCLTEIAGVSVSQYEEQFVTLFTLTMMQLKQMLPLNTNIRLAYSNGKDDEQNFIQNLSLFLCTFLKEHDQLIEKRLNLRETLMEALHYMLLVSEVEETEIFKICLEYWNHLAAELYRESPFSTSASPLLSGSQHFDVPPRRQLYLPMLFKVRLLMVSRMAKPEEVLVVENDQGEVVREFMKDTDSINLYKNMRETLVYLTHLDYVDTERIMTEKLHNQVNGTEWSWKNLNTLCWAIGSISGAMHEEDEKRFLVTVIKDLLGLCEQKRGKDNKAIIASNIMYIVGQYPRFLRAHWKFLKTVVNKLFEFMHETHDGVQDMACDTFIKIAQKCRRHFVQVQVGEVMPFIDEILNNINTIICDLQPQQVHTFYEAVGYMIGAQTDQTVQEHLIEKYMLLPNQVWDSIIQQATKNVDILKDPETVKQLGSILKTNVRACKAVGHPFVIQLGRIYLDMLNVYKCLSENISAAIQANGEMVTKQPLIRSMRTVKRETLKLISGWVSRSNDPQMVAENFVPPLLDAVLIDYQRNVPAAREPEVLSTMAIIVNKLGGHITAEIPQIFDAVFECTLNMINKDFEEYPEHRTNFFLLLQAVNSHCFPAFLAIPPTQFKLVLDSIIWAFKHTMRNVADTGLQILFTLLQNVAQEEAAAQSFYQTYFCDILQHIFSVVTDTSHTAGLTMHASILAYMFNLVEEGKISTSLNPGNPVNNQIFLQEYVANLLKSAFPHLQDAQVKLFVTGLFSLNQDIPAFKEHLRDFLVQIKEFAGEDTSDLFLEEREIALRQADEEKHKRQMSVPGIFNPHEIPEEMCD
Description: SEC; analytical size exclusion chromatography of complexes I, II and III assembled from a RanBP2 variant, SUMO1-RanGAP1, Ubc9, Crm1 and Ran^Q69L(GTP); fractions on SDS-PAGE. A general note: Size exclusion chromatography separates by hydrodynamic size, large species first.

In the next test the target is Ran^Q69L(GTP) (human, UniProt P62826 1-216, Q69L). Described as above.
The target of test [2] is T1, Crm1 (full-length human). Description: cryo-EM structure; purified RanBP2^RBD4/SUMO1^Q94P-RanGAP1/Ubc9 incubated with excess Crm1 and Ran^Q69L(GTP), gel filtration in 20 mM HEPES pH 7.4, 110 mM potassium acetate, 2 mM magnesium acetate, 1 mM TCEP; lightly crosslinked with 250 uM BS3 for 30 min; 0.1% CHAPSO.

B1: RanBP2^2300–3060 (RanBP2^RBD3–4) (domain or fragment, human, UniProt P49792 2300-3060, looked up)
chain: TQEEERDGQYFEPVVPLPDLVEVSSGEENEQVVFSHRAKLYRYDKDVGQWKERGIGDIKILQNYDNKQVRIVMRRDQVLKLCANHRITPDMTLQNMKGTERVWLWTACDFADGERKVEHLAVRFKLQDVADSFKKIFDEAKTAQEKDSLITPHVSRSSTPRESPCGKIAVAVLEETTRERTDVIQGDDVADATSEVEVSSTSETTPKAVVSPPKFVFGSESVKSIFSSEKSKPFAFGNSSATGSLFGFSFNAPLKSNNSETSSVAQSGSESKVEPKKCELSKNSDIEQSSDSKVKNLFASFPTEESSINYTFKTPEKAKEKKKPEDSPSDDDVLIVYELTPTAEQKALATKLKLPPTFFCYKNRPDYVSEEEEDDEDFETAVKKLNGKLYLDGSEKCRPLEENTADNEKECIIVWEKKPTVEEKAKADTLKLPPTFFCGVCSDTDEDNGNGEDFQSELQKVQEAQKSQTEEITSTTDSVYTGGTEVMVPSFCKSEEPDSITKSISSPSVSSETMDKPVDLSTRKEIDTDSTSQGESKIVSFGFGSSTGLSFADLASSNSGDFAFGSKDKNFQWANTGAAVFGTQSVGTQSAGKVGEDEDGSDEEVVHNEDIHFEPIVSLPEVEVKSGEEDEEILFKERAKLYRWDRDVSQWKERGVGDIKILWHTMKNYYRILMRRDQVFKVCANHVITKTMELKPLNVSNNALVWTASDYADGEAKVEQLAVRFKTKEVADCFKKTFEECQQNLMKLQKGHVSLAAELSK
notes: RanBP2 (Nup358), human, residues 2300-3060: RBD3, FG1, IR1-M-IR2, FG2 and RBD4; pET28b with a thrombin-cleavable His6 tag; no cleavage is described for the protein of the analytical gel filtration runs (it was cleaved for the SUMO conjugation assays); source: E. coli BL21(DE3) Codon Plus (RIL), purified (Ni-NTA, SEC)
Take B1: the binding result with Crm1 (full-length human) [1] and in the test with Ran^Q69L(GTP) was “binds” each time.

B2: RanBP2^2300–2910 (RanBP2^RBD3) (domain or fragment, human, UniProt P49792 2300-2910, looked up)
chain: TQEEERDGQYFEPVVPLPDLVEVSSGEENEQVVFSHRAKLYRYDKDVGQWKERGIGDIKILQNYDNKQVRIVMRRDQVLKLCANHRITPDMTLQNMKGTERVWLWTACDFADGERKVEHLAVRFKLQDVADSFKKIFDEAKTAQEKDSLITPHVSRSSTPRESPCGKIAVAVLEETTRERTDVIQGDDVADATSEVEVSSTSETTPKAVVSPPKFVFGSESVKSIFSSEKSKPFAFGNSSATGSLFGFSFNAPLKSNNSETSSVAQSGSESKVEPKKCELSKNSDIEQSSDSKVKNLFASFPTEESSINYTFKTPEKAKEKKKPEDSPSDDDVLIVYELTPTAEQKALATKLKLPPTFFCYKNRPDYVSEEEEDDEDFETAVKKLNGKLYLDGSEKCRPLEENTADNEKECIIVWEKKPTVEEKAKADTLKLPPTFFCGVCSDTDEDNGNGEDFQSELQKVQEAQKSQTEEITSTTDSVYTGGTEVMVPSFCKSEEPDSITKSISSPSVSSETMDKPVDLSTRKEIDTDSTSQGESKIVSFGFGSSTGLSFADLASSNSGDFAFGSKDKNFQWANTGAAVFGTQSVGTQSAGKVGEDEDGSDEEVVHNEDI
notes: RanBP2 (Nup358), human, residues 2300-2910: contains only RBD3 of the two RBDs; pET28b with a thrombin-cleavable His6 tag; no cleavage is described for the analytical gel filtration runs; source: E. coli BL21(DE3) Codon Plus (RIL), purified (Ni-NTA, SEC)
As to B2, the binding result with Crm1 (full-length human) [1] and in the test with Ran^Q69L(GTP) was “binds” each time.

B3: RanBP2^2446–3060 (RanBP2^RBD4) (domain or fragment, human, UniProt P49792 2446-3060, looked up)
chain: DSLITPHVSRSSTPRESPCGKIAVAVLEETTRERTDVIQGDDVADATSEVEVSSTSETTPKAVVSPPKFVFGSESVKSIFSSEKSKPFAFGNSSATGSLFGFSFNAPLKSNNSETSSVAQSGSESKVEPKKCELSKNSDIEQSSDSKVKNLFASFPTEESSINYTFKTPEKAKEKKKPEDSPSDDDVLIVYELTPTAEQKALATKLKLPPTFFCYKNRPDYVSEEEEDDEDFETAVKKLNGKLYLDGSEKCRPLEENTADNEKECIIVWEKKPTVEEKAKADTLKLPPTFFCGVCSDTDEDNGNGEDFQSELQKVQEAQKSQTEEITSTTDSVYTGGTEVMVPSFCKSEEPDSITKSISSPSVSSETMDKPVDLSTRKEIDTDSTSQGESKIVSFGFGSSTGLSFADLASSNSGDFAFGSKDKNFQWANTGAAVFGTQSVGTQSAGKVGEDEDGSDEEVVHNEDIHFEPIVSLPEVEVKSGEEDEEILFKERAKLYRWDRDVSQWKERGVGDIKILWHTMKNYYRILMRRDQVFKVCANHVITKTMELKPLNVSNNALVWTASDYADGEAKVEQLAVRFKTKEVADCFKKTFEECQQNLMKLQKGHVSLAAELSK
notes: RanBP2 (Nup358), human, residues 2446-3060: FG1, IR1-M-IR2, FG2 and RBD4; pET28b with a thrombin-cleavable His6 tag; no cleavage is described for the protein used in cryo-EM reconstitutions and analytical gel filtration; also called RanBP2 FG1-IR1-M-IR2-FG2-RBD4 fragment; hRanBP2^RBD4; source: E. coli BL21(DE3) Codon Plus (RIL), purified (Ni-NTA, SEC)
With B3, the binding result in the test with Ran^Q69L(GTP) and with Crm1 (full-length human) [2] was “binds” each time.
